Entries after “also recorded” stand apart in the source; their conditions may differ.
B1: IFN-α1: Recombinant Interferon-α1, a type I IFN, injected intraperitoneally 3 times weekly at 10^5 IU/dose (protein, UniProt P01562 24-189, looked up)
Interferon alpha-1/13: CDLPETHSLDNRRTLMLLAQMSRISPSSCLMDRHDFGFPQEEFDGNQFQKAPAISVLHELIQQIFNLFTTKDSSAAWDEDLLDKFCTELYQQLNDLEACVMQEERVGETPLMNADSILAVKKYFRRITLYLTEKKYSPCAWEVVRAEIMRSLSLSTNLQERLRRKE

Tests used:
4T1.2 tumours [1] = experiment: Early treatment setting after primary tumour resection: poly I:C, doxorubicin or combination (bioluminescence imaging); format: in vivo, Balb/c mice; conditions: treatment from 2 days after resection for 2 weeks; 25 ug poly I:C every 2 days, 4 mg/kg doxorubicin every 4 days; bioluminescence (FIG. 21)
Procedure: 4T1.2 cells were inoculated into the 4th mammary gland of Balb/c mice. Primary tumours were resected when they reached 0.2 g and 2 days later treatment was started for a period of 2 weeks. Mice were treated with vehicle alone, 25 ug poly I:C every 2 days, 4 mg/kg doxorubicin every 4 days, or the combination of poly I:C and doxorubicin. Metastatic burden was visualised in all mice at a set time point using bioluminescence imaging.

4T1.2 tumours [2] = experiment: 4T1.2 tumour bearing mice treated with poly I:C (bioluminescence imaging, Q-PCR of tumour burden); format: in vivo
Procedure: Mice bearing 4T1.2 cells were treated with 25 ug poly I:C 3× weekly by tail vein injection beginning at day 3. (a) Bioluminescence imaging of 4T1.2 primary tumour burden prior to surgical resection (b) Bioluminescence imaging of metastatic burden in mice treated with vehicle or poly I:C (c) Q-PCR detection of 4T1.2 tumour burden in femur, spine and lung of mice at day 33.
These techniques have previously been described by Eckhardt and colleagues (Eckhardt 2005). Briefly, mice were inoculated with 10^5 cells into the 4th mammary fatpad of female 6-8 week old Balb/c mice. Tumour volumes were monitored by caliper measurement 3 times weekly. […] Metastatic burden in secondary tissues was detected by a Q-PCR based assay using a reporter sequence inserted into the genome of the 4T1.2 cells. Survival assays were conducted in the same way except at day 22 the mice were anaesthetized using either a combination of ketamine hydrochloride (1.2 m/g of mouse)/xylaxil hydrochloride (3 μg/g of mouse) or 2.5% aerosol isoflurane in 100% oxygen and the primary tumour was surgically removed and weighed. […] At time of sacrifice, all mice had evidence of bone and lung metastasis unless otherwise stated. Anti-CD8 (clone 53-6.7, produced in house) and the control antibody rat IgG2a (clone 2A3, produced in house) were injected intraperitoneally at 50 μg per dose on days −1, 0, 1, 4, 7 and subsequently every 7 d. Rabbit anti-asialo GM1 was purchased from Wako chemicals and injected intraperitoneally according to the manufacturer's instructions.

4T1.2 cells [3] = experiment: Real-time RT-PCR of 4T1.2 cells treated with recombinant IFN-α1; format: cell-based, mouse; conditions: 4T1.2 cells in vitro, recombinant IFN-α1 1000 IU/mL, real-time RT-PCR (FIG. 6a)
Text: (§1) FIG. 6: The effect of type I IFN treatment on metastasis. (a) Real-time RT-PCR analysis of 4T1.2 cells treated with […] recombinant IFN-α1. (n=3, * p<0.05, error bars are S.E.M.). (b) Proliferation of 4T1.2 cells treated with 1000 IU/mL of recombinant […]. (n=6, error bars are S.E.M.). (c) Primary tumour volume, n=15. (d) Q-PCR detection of metastatic 4T1.2 tumour burden in spine (at day 33 post tumour cell inoculation) of mice treated with IFNα1 or vehicle. (e) H&E stained sections of spines and femurs from 4T1.2 bearing mice treated with IFN-α1 or vehicle (Scale bar=50 T=Tumour). (f) Kaplan-Meier disease-free survival analysis of mice bearing 4T1.2 tumours that were subsequently resected. Mice were treated with 10^5 IU of recombinant IFN-α1 or saline from day 3. (n=15).
66cl4 and 4T1 cell lines were kindly provided by Dr. Fred Miller (Karmanos Cancer Institute, Detroit, Mich.). Derivation of the 4T1.2 line has previously been described (Eckhardt et al. 2005, supra; Lelekakis et al. 1999, supra). Recombinant Interferon-α1 was used at a dose of 1000 IU/mL. Interferon-α receptor blocking antibody (MAR1-5A3) was used at a concentration of 10 μg/mL (Leinco, St Louis, Mo.). G-CSF ELISA was performed according to manufacturer's instructions (R&D Systems, Minneapolis, Minn., USA). Flow cytometry was performed using standard techniques. MDSCs were assessed using Ly6G (clone IA8) and CD11b (clone M1/70) specific antibodies (BD Pharmingen, Franklin Lakes, N.J., USA) at a dilution of 1:200. Flow Cytometry was performed using an LSR-II (BD Pharmingen, San Jose, Calif.). Real-time RT-PCR was performed using standard techniques. In vitro proliferation was assessed using a sulforhodamine B binding assay as previously described (Eckhardt et al. 2005, supra). […]
Expression level of each gene was calculated based on the cycle threshold (CT), set within the linear range of DNA amplification. Expression level (arbitrary units) was calculated as relative transcript abundance (RTA) by: RTA=10000/(2^ΔCT), where ΔCT=CT (gene of interest)−CT(GAPDH).

4T1.2 tumours [4] = experiment: Mouse metastasis assay, 4T1.2 mammary tumours, IFN-α1 treatment; format: in vivo, Balb/c mice
Text: as §1
Female Balb/c mice (6-8 weeks old) were obtained from ARC (Perth, WA, Australia) or Walter and Eliza Hall Institute (Kew, Vic, Australia) breeding facilities. Female NSG mice were obtained from WEHI breeding facility under license from The Jackson Laboratory and Balb/c Ifnar1^−/− (Hwang et al. 1995, supra) were bred in-house. Recombinant IFN-α1 was injected intraperitoneally 3 times weekly at a dose of 10^5 IU/dose. All other mouse assays were performed using standard techniques. Metastasis was assessed using a previously described assay (Eckhardt et al. 2005, supra). Mouse investigations were performed with the approval of the Peter MacCallum Animal Ethics Experimentation Committee.
(§2) These techniques have previously been described by Eckhardt and colleagues (Eckhardt 2005). Briefly, mice were inoculated with 10^5 cells into the 4th mammary fatpad of female 6-8 week old Balb/c mice. Tumour volumes were monitored by caliper measurement 3 times weekly. […] Metastatic burden in secondary tissues was detected by a Q-PCR based assay using a reporter sequence inserted into the genome of the 4T1.2 cells. […]

4T1.2 cells [5] = experiment: In vitro proliferation of 4T1.2 cells (sulforhodamine B binding assay); format: cell-based, mouse; conditions: 1000 IU/mL recombinant IFN-α1 (FIG. 6b)
Text: as §1
66cl4 and 4T1 cell lines were kindly provided by Dr. Fred Miller (Karmanos Cancer Institute, Detroit, Mich.). Derivation of the 4T1.2 line has previously been described (Eckhardt et al. 2005, supra; Lelekakis et al. 1999, supra). Recombinant Interferon-α1 was used at a dose of 1000 IU/mL. […] MDSCs were assessed using Ly6G (clone IA8) and CD11b (clone M1/70) specific antibodies (BD Pharmingen, Franklin Lakes, N.J., USA) at a dilution of 1:200. […] In vitro proliferation was assessed using a sulforhodamine B binding assay as previously described (Eckhardt et al. 2005, supra). […]

4T1.2 tumours [6] = experiment: Metastasis-free survival assay with primary tumour resection, IFN-α1 treatment; format: in vivo, Balb/c mice
Text: as §1
Female Balb/c mice (6-8 weeks old) were obtained from ARC (Perth, WA, Australia) or Walter and Eliza Hall Institute (Kew, Vic, Australia) breeding facilities. […] Metastasis was assessed using a previously described assay (Eckhardt et al. 2005, supra). […]
as §2, with “Briefly, mice were inoculated with 10^5 cells into the 4th mammary fatpad of female 6-8 week old Balb/c mice.” left out

[7] = tested on: 4T1.2 tumour bearing mice; experiment: Immune cell populations (flow cytometry) and G-CSF (ELISA) in 4T1.2 tumour bearing mice treated with IFN-α1; format: in vivo, Balb/c mice
Procedure: FIG. 18: Measurement of MDSC and G-CSF in blood of 4T1.2 tumour bearing mice treated with IFNα1. Mice were treated with IFN-al or saline control one day after 4T1.2 tumour cell inoculation into the mammary gland. Five days after tumour inoculation, MDSC percentage (a) and absolute numbers (b) were measured, along with G-CSF levels by ELISA (c).
FIG. 19: Changes in immune cells in the mammary gland, lung and bone. a) Mice were treated with IFN-α1 or saline control on day 1, 3 and 5 after 4T1.2 tumour cell inoculation into the mammary gland. Ten days after tumour inoculation MDSC, NK, CD4^+ and CD8^+ T cell percentages were measured in fatpad/primary tumour, lung and bone marrow. N=5. Difference between treatment groups was assessed using an unpaired T test and significance is indicated. b) Cells isolated from the mammary gland, lung and bone marrow of naïve Balb/c mice were stained for DX5, TCR, CD11b and CD27. Shown are representative profiles for CD11b and CD27 expression on gated DX5^+TCR. Percentage of CD11b^low/high and/or CD27^low/high are indicated.
66cl4 and 4T1 cell lines were kindly provided by Dr. Fred Miller (Karmanos Cancer Institute, Detroit, Mich.). Derivation of the 4T1.2 line has previously been described (Eckhardt et al. 2005, supra; Lelekakis et al. 1999, supra). Recombinant Interferon-α1 was used at a dose of 1000 IU/mL. Interferon-α receptor blocking antibody (MAR1-5A3) was used at a concentration of 10 μg/mL (Leinco, St Louis, Mo.). G-CSF ELISA was performed according to manufacturer's instructions (R&D Systems, Minneapolis, Minn., USA). Flow cytometry was performed using standard techniques. MDSCs were assessed using Ly6G (clone IA8) and CD11b (clone M1/70) specific antibodies (BD Pharmingen, Franklin Lakes, N.J., USA) at a dilution of 1:200. Flow Cytometry was performed using an LSR-II (BD Pharmingen, San Jose, Calif.). Real-time RT-PCR was performed using standard techniques. In vitro proliferation was assessed using a sulforhodamine B binding assay as previously described (Eckhardt et al. 2005, supra). Immunohistochemistry was performed using standard techniques, using α-mouse Irf7 (Zymed/Invitrogen, Carlsbad, Calif., USA) α-human Irf7 (BD Pharmingen, Franklin Lakes, N.J., USA) at a concentration of 5 μg/mL.

[8] = IFN-α1 on day 1, 3 and 5, measured ten days after tumour inoculation (FIG. 19a)

Molecule | metastasis at end point (4T1.2 tumours [1]) | primary tumour growth (4T1.2 tumours [2]; 25 ug poly I:C 3x weekly by tail vein injection from day 3, bioluminescence imaging (FIG. 20a)) | metastatic burden in lung and bone (4T1.2 tumours [2]; 25 ug poly I:C 3x weekly, PCR detection of tumour cell markers at day 33 (FIG. 20c)) | metastasis to multiple organs (4T1.2 tumours [2]; 25 ug poly I:C 3x weekly, bioluminescence after primary tumour resection (FIG. 20b)) | expression of Irf7 (4T1.2 cells [3]) | expression of Irf9 (4T1.2 cells [3]) | expression of STAT1 (4T1.2 cells [3]) | metastasis to the spine and femur (4T1.2 tumours [4]; 10^5 IU/dose i.p. 3 times weekly, Q-PCR at day 33 and H&E, vs vehicle, P<0.007 (FIG. 6d, e)) | extent of metastasis to lung (4T1.2 tumours [4]; 10^5 IU/dose i.p. 3 times weekly, Q-PCR, endpoint day 33 (FIG. 17)) | primary tumour growth in vivo (4T1.2 tumours [4]; 10^5 IU/dose intraperitoneally 3 times weekly (FIG. 6c)) | 4T1.2 cell proliferation in vitro (4T1.2 cells [5]) | metastasis-free survival (4T1.2 tumours [6]; 10^5 IU recombinant IFN-α1 or saline for five weeks, primary tumour resection at 3 weeks (FIG. 6f)) | growth of primary tumours (4T1.2 tumours [6]; survival study, treatment for five weeks, primary tumour resection at 3 weeks) | G-CSF levels in the peripheral blood ([7]; 4T1.2 tumour bearing mice, IFN-α1 vs saline, ELISA (FIG. 18c)) | MDSC accumulation in the peripheral blood ([7]; 4T1.2 tumour bearing mice, IFN-α1 vs saline, five days after tumour inoculation (FIG. 18), listed as IFN) | CD11b+Ly6G+ MDSC in the bone marrow [7, 8] | NK cells at the primary site or in lungs [7, 8] | NK cells in the bone marrow [7, 8]
COc1cccc2c1C(=O)c1c(O)c3c(c(O)c1C2=O)C[C@@](O)(C(=O)CO)C[C@@H]3O[C@H]1C[C@H](N)[C@H](O)[C@H](C)O1 [doxorubicin] | did not significantly impact metastasis |  |  |  |  |  |  |  |  |  |  |  |  |  |  |  |  | 
poly I:C | did not significantly impact metastasis | did not alter | significant decrease | suppressed metastasis to multiple organs; also recorded: suppresses metastasis |  |  |  |  |  |  |  |  |  |  |  |  |  | 
B1 |  |  |  |  | increased expression | increased expression | increased expression | significantly reduced metastasis to the spine and femur to undetectable levels | not reduced | did not affect | did not affect | significant extension | no effect | decreased | significantly decreased | significantly decreased | not observed | significantly increased
